# How the values were obtained:
# CD8+ T-cells [1] = experiment: Intracellular cytokine staining after re-stimulation with mutant or wild-type HERC1 peptide; format: cell-based, human; conditions: PBLs from day 63 and 297 expanded with mutant peptide, re-stimulated
# Description: HERC1 P>S mutant and wild type peptides of 9 amino acids in length (Mutant: […] (SEQ ID NO: 344), Wild type: […] (SEQ ID NO: 5925)) were synthesized (GenScript Piscataway, N.J.). 1.5×10^6 patient PBMCs were cultured with 1.5×10^6 autologous PBMCs pulsed with HERC1 P>S mutant peptide in RPMI media containing 10% pooled human serum (PHS), 10 mM HEPES, 2 mM L Glutamine, and 50 μM β-mercaptoethanol supplemented with IL-15 (10 ng/ml) and IL-2 (10 IU/ml), using methods previously described (59). […] Cells were then treated with 1× Brefeldin A and monensin (BioLegend) for 4 hours, and subsequently stained with 1 μL Alexa Fluor 405-CD3 (Invitrogen), 3 μL APC-H7-CD8 (BD Bioscience), and 1 μL ECD-CD4 (Beckman Coulter). Upon subsequent washing and permeabilization, the cells were stained with the following antibodies to intracellular cytokines: 3 μL Alexa Fluor 647-IFN-γ (Biolegend), 3 μL PE-MIP-1β, and 1 μL PE-Cy7-TNF-α (BD Pharmingen). Data were acquired by flow cytometry (using CYAN flow cytometer, Summit software, Dako Cytomation California Inc., Carpinteria, Calif.). Analysis was done by FlowJo version 10.1, TreeStar, Inc. CD3+ single cell lymphocytes were gated for analysis (SS vs. FS [low, mid], FS vs. Pulse Width [all, low], and CD3 vs. “dump” channel [high, low]).
# CD8+ T-cells [2] = experiment: MHC multimer screening of neoantigen-specific CD8+ T-cells in serially collected peripheral blood lymphocytes of a pembrolizumab responder; format: cell-based, human
# Description: HLA-A restricted candidate neoantigens were synthesized in-house (Netherlands Cancer Institute) and HLA-multimers containing these peptides were produced by micro-scale parallel UV-induced peptide exchange reactions as previously described (26, 58). Briefly, peptide-MHC complexes loaded with UV-sensitive peptide were subjected to 366-nm UV light (CAMAG) for one hour at 4° C. in the presence of candidate neoantigen peptide in a 384-well plate. pMHC multimers were generated using a total of 11 different fluorescent streptavidin (SA) conjugates (Invitrogen). For each pMHC monomer, conjugation was performed with two of these fluorochromes. NaN3 (0.02% w/v) and an excess of D-biotin (26.4 mM, Sigma) were added to block residual binding sites. For T cell staining an combinatorial encoding strategy was employed to be able to analyze for reactivity against up to 47 different peptides in parallel (27). The PBMC samples were thawed, treated with DNAse for 1 h and stained with pMHC multimer panels for 15 min at 37 C. Subsequently, anti-CD8-AF700 (Invitrogen), anti-CD4-FITC (Invitrogen), anti-CD14-FITC (Invitrogen), anti-CD16-FITC (Invitrogen), anti-CD19-FITC (Invitrogen), and LIVE/DEAD Fixable IR Dead Cell Stain Kit (Invitrogen) were added for additional 20 min on ice. Data acquisition was performed on an LSR II flow cytometer (Becton Dickinson) with FACSDiva 6 software. Cutoff values for the definition of positive responses were ≥0.005% of total CD8+ cells and ≥10 events. For immunophenotypical analysis, day 44 PMLs were stained with HERC1 P3278S MHC multimers in two colors (qdot 625 (Invitrogen) and PerCPeFluor710 (ebioscience)) plus anti-CD45RA Ab (Invitrogen), anti-CCR7 Ab (BD Bioscience), anti-HLA-DR Ab (BD Bioscience), and anti-LAG-3 Ab (R&D systems). The immunophenotype of HERC1 P3278S reactive and bulk CD8+ T-cells were analyzed. Data were acquired using an LSR II flow cytometer (Becton Dickson) with FASCDiva 6 software.
# [3] = test system: stage IV non-small cell lung cancer (NSCLC) patients; experiment: Clinical efficacy of pembrolizumab in NSCLC patients (protocol NCT01295827), by tumor genomic subgroup; format: in vivo, human; conditions: for ORR: all 34
# Description: All patients had stage IV non-small cell lung cancer (NSCLC) and were treated at Memorial Sloan Kettering Cancer Center (n=29) or the University of California at Los Angeles (n=5) on protocol NCT01295827 (FIG. 17). All patients initiated therapy in 2012-2013 and were treated at 10 mg/kg every 2-3 weeks, except for 5 patients treated at 2 mg/kg every 3 weeks. The overall response rate and progression-free survival are reported to be similar across dose and schedules (6). All patients had consented to Institutional Review Board-approved protocols permitting tissue collection and sequencing. PD-L1 expression was assessed prospectively by immunohistochemistry using a previously validated murine anti-human anti-PD-L1 antibody (clone 22C3, Merck & Co., Inc.). Membranous expression of PD-L1 on tumor cells and infiltrating immune cells were scored. 31 (91%) scored at least 1% positive for PD-L1 expression; 2 patients were PD-L1 negative; and 1 was unknown. Smoking status was evaluated using previously completed self-reported smoking questionnaires executed as standard of care at MSKCC or review of medical records at UCLA.
# Per protocol, CT scans were performed every nine weeks. Partial and complete responses were confirmed by a repeat imaging occurring at least 4 weeks after the initial identification of response; unconfirmed responses were considered stable or progressive disease dependent on results of the second CT scan. Durable clinical benefit (DCB) was defined as stable disease or partial response lasting longer than 6 months (week 27, the time of third protocol-scheduled response assessment). No durable benefit (NDB) was defined as progression of disease ≤6 months of beginning therapy. Patients who were still ongoing study therapy at the time of the data lock (Oct. 10, 2014) but who had not yet reached 6 months of follow up were considered “Not reached” (NR). These patients were not included in the analysis of DCB/NDB, but were included in assessments of objective response and progression-free survival. For patients with ongoing response to study therapy, progression free survival was censored at the date of the most recent imaging evaluation. For alive patients, overall survival was censored at the date of last known contact.
# Mann-Whitney test was used to compare mutation burdens and differences in the frequency of nucleotide changes. The Log-Rank and Mantel-Haenszel tests were used to compare Kaplan-Meier survival curves. The proportion of objective responders/non-responders or DCB/NDB were compared using Fisher's Exact Test. The receiver operator characteristic (ROC) curve was generated by plotting the proportion of all DCB patients with mutation burden above any given cut point (sensitivity) against the proportion of the NDB patients that would also exceed the same cut point (1-specificity). The area under the curve and exact 95% confidence intervals are reported. Correlations between nonsynonymous mutation burden and neoantigen burden, neoantigen burden and best overall response, and frequency of neoantigen burden/nonsynonymous mutation and best overall response were calculated using Spearman correlation formula. Statistical analyses were performed using GraphPad Prism v.6 (Graphpad Prism Software, San Diego, Calif.).
# [4] = cited from earlier work
# [5] = approximately 2000 patients; cited from earlier work
# [6] = test system: stage IV non-small cell lung cancer (NSCLC) patients; conditions: 10 mg/kg every 2-3 weeks vs 2 mg/kg every 3 weeks; reference (6); cited from earlier work
# [7] = discovery cohort, high nonsynonymous burden
# [8] = discovery cohort, low nonsynonymous burden
# [9] = validation cohort, nonsynonymous mutation burden above the median
# [10] = validation cohort, nonsynonymous mutation burden below the median
# [11] = 411 patients, Trial 1, all grades
substance,measurement,setting,value
ASNAPSAAK (listed as Homo sapiens) [synthesized 9 amino acid wild type HERC1 peptide],"polyfunctional CD8+ T-cells (IFNγ, CD107a, MIP113, TNFα production) in response to peptide",CD8+ T-cells [1],not
ASNASSAAK (listed as Homo sapiens) [synthesized 9 amino acid mutant HERC1 P>S neoantigen peptide],"polyfunctional CD8+ T-cells (IFNγ, CD107a, MIP113, TNFα production) in response to peptide",CD8+ T-cells [1],detected
same,HERC1 P3278S neoantigen-specific CD8+ T-cell response (MHC multimer+),CD8+ T-cells [2]; Day 44,0.044 % of Cd8+ T-cells
same,HERC1 P3278S neoantigen-specific CD8+ T-cell response (MHC multimer+),"CD8+ T-cells [2]; at start of therapy, level of detection",< 0.005%
same,HERC1 P3278S neoantigen-specific CD8+ T-cell response (MHC multimer+),CD8+ T-cells [2]; subsequent months as tumor regression plateaued,just above background
same,HERC1 P3278S neoantigen-specific CD8+ T-cell response (MHC multimer+),CD8+ T-cells [2]; within 3 weeks post therapy initiation,0.040 % of CD8+ T-cells
pembrolizumab,median PFS,[3]; TH tumors,not reached
same,rate of DCB,[3]; TH tumors,77%
same,median PFS,[3]; TL tumors,3.5
same,rate of DCB,[3]; TL tumors,22%
same,ORR,"[3]; transversion-high (TH, smoking signature) tumors",56%
same,ORR,[3]; transversion-low (TL) tumors,17%
same,confirmed objective response rate (ORR),[3]; [7],63%
same,median PFS,[3]; [7],14.5 months
same,rate of durable clinical benefit (DCB),"[3]; discovery cohort, high nonsynonymous burden (above median of cohort)",Seventy-three
same,rate of durable clinical benefit (DCB),"[3]; discovery cohort, low mutation burden",13%
same,confirmed objective response rate (ORR),[3]; [8],0%
same,median PFS,[3]; [8],3.7 months
same,rate of DCB,[3]; high nonsynonymous mutation burden (>200) and some PD-L1 expression (weak/strong),91%
same,rate of DCB,[3]; low mutation burden and some degree of PD-L1 expression,10%
same,decrease in tumor burden,[3]; one patient (Study ID #9) with exceptional response,95%
same,duration of partial response,[3]; one tumor with very low burden (56 nonsynonymous mutations),8 months
same,median PFS,"[3]; overall set, high neoantigen burden",14.5 months
same,median PFS,"[3]; overall set, low neoantigen burden",3.5 months
same,rate of DCB,[3]; self-reported ever smokers,48%
same,rate of DCB,[3]; self-reported never-smokers,33%
same,tumors with no durable benefit (NDB),"[3]; tumors with ≥178 nonsynonymous mutations, both cohorts",5 of 18
same,median PFS,[3]; [9],not reached
same,rate of DCB,[3]; [9],83%
same,median PFS,[3]; [10],3.4 months
same,rate of DCB,[3]; [10],22%
same,rate of durable benefit,"[3]; validation cohort, tumors harboring ≥178 mutations",75%
same,rate of durable benefit,"[3]; validation cohort, tumors with <178 mutations",14%
same,rate of DCB,"[3]; weak PD-L1 expression, high nonsynonymous mutation burden",75%
same,rate of DCB,"[3]; weak PD-L1 expression, low mutation burden",11%
same,"Pneumonitis, patients","[4]; 411 melanoma patients, Trial 1, all grades",2.9%
same,"Colitis (including microscopic colitis), patients",[4]; [11],1%
same,"Hepatitis (including autoimmune hepatitis), patients",[4]; [11],0.5%
same,"Hyperthyroidism, patients",[4]; [11],1.2%
same,"Hypophysitis, patients",[4]; [11],0.5%
same,"Hypothyroidism, patients",[4]; [11],8.3%
same,"Colitis Grade 2, patients",[4]; Trial 1,0.2%
same,"Colitis Grade 3, patients",[4]; Trial 1,0.5%
same,"Hepatitis Grade 4, patients",[4]; Trial 1,0.2%
same,"Hyperthyroidism Grade 2, patients",[4]; Trial 1,0.5%
same,"Hyperthyroidism Grade 3, patients",[4]; Trial 1,0.2%
same,"Hypophysitis Grade 2, patients",[4]; Trial 1,0.2%
same,"Hypophysitis Grade 4, patients",[4]; Trial 1,0.2%
same,"Hypothyroidism Grade 3, patients",[4]; Trial 1,0.2%
same,"Pneumonitis Grade 2, patients",[4]; Trial 1,1.9%
same,"Pneumonitis Grade 3, patients",[4]; Trial 1,0.2%
same,"discontinuation of KEYTRUDA due to pneumonitis, patients",[4]; Trial 1,0.7%
same,median duration of colitis,[4]; Trial 1,2.6 months
same,median duration of hyperthyroidism,[4]; Trial 1,2.8 months
same,median duration of pneumonitis,[4]; Trial 1,4.9 months
same,median time to development of pneumonitis,[4]; Trial 1,5 months
same,"other immune-mediated adverse reactions, patients: exfoliative dermatitis, uveitis, arthritis, myositis, pancreatitis, hemolytic anemia, partial seizures, adrenal insufficiency",[4]; Trial 1,less than 1%
same,patients who received corticosteroids or discontinued KEYTRUDA for management of hypothyroidism,[4]; Trial 1,No patient
same,"permanent discontinuation of KEYTRUDA due to colitis, patients",[4]; Trial 1,0.2%
same,"permanent discontinuation of KEYTRUDA due to hyperthyroidism, patients",[4]; Trial 1,0.2%
same,"Nephritis, patients",[4]; all grades,0.7%
same,duration of hepatitis,[4]; case of Grade 4 hepatitis,1.1 months
same,"Grade 2 autoimmune nephritis, patients","[4]; human, in vivo",0.2%
same,duration of autoimmune nephritis,"[4]; human, in vivo",3.2 months
same,"most common adverse reactions, patients: fatigue, cough, nausea, pruritus, rash, decreased appetite, constipation, arthralgia, diarrhea","[4]; human, in vivo",> 20%
same,patients who fully recovered renal function,"[4]; nephritis, with high-dose corticosteroids",All three
same,"interstitial nephritis with renal failure, patients",[4]; one Grade 3 and one Grade 4,0.5%
same,pneumonitis completely resolved,[4]; patients with Grade 2-3 pneumonitis,seven of the nine
same,complete resolution of colitis,[4]; patients with colitis,All four
same,complete resolution of hepatitis,[4]; patients with hepatitis,Both
same,complete resolution of hyperthyroidism,[4]; patients with hyperthyroidism,All five
same,"additional immune-mediated adverse reactions, patients: myasthenic syndrome, optic neuritis, rhabdomyolysis",[5],less than 1%
same,overall response rate and progression-free survival across dose and schedules,[6],similar
